Experimental data from US20050020519A1, “Modulation of insulin-regulated aminopeptidase (irap)/angiotensin iv (at4) receptor activity” (priority 2001, published 2005).
“Also recorded” adds a separate entry of the source. Read-outs that look alike come from different tables or passages of the source. Where no end group is shown, it is not given here. [ ]: non-standard residue; d: D form. Cyt = cystine residue, as named in the source; pGlu = O=C1CC[C@@H](C(=O)O)N1

Tests used:
[1] = target: T1, IRAP (Homo sapiens, UniProt Q9UIQ6); test: IRAP enzymatic activity, hydrolysis of L-leucine-β-naphthylamide (fluorescence); assay type: biochemical
T1 construct: expressed in transfected cells; host or cells: HEK 293T cells (solubilised membrane protein)
T1 sequence (Q9UIQ6 whole entry): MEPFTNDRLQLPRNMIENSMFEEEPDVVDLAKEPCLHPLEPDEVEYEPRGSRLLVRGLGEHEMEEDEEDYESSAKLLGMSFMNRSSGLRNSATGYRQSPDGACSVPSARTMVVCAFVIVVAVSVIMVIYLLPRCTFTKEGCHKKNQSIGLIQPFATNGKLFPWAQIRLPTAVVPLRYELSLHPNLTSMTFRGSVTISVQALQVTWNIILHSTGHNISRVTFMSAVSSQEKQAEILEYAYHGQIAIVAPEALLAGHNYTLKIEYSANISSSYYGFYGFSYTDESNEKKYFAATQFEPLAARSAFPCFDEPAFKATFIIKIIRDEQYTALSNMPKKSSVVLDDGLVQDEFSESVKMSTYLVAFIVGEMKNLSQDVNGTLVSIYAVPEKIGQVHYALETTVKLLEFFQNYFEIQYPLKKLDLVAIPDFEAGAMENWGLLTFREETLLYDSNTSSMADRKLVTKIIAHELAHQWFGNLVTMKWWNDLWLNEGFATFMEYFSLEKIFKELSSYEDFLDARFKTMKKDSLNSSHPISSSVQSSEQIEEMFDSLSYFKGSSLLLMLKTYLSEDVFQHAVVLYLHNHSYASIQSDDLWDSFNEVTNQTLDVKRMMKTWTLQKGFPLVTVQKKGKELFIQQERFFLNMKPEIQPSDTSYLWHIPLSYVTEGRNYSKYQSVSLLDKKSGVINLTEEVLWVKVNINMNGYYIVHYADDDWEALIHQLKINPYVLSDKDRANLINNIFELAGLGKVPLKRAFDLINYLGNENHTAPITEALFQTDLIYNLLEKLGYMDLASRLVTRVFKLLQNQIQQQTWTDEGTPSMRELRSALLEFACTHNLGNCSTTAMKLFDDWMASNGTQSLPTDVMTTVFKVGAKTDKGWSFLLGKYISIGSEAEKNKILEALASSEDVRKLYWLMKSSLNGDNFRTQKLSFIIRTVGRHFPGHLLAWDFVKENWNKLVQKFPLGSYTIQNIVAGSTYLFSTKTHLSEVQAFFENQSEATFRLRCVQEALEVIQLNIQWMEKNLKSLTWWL
Source text: For example, Hek293 cells stably transfected with a eukaryotic expression vector expressing the AT4 receptor gene may be utilized. An example of this is the vector pcDNA-3 containing the cDNA encoding the full length AT4 receptor. Two assay systems are used, one for each spliced variant of the human AT4 receptor gene. The assay system involves the measurement of the rate of hydrolysis of L-leucyl β-naphthylamide by the AT4 receptor. The rate of hydrolysis by the transfected cells is followed by recording the increase in fluorescence (excitation at 340 nm, emission at 410 nm) using a purpose-designed fluorimeter. Test compounds are added to the assay system, and their effects on the hydrolysis of L-leucyl β-naphthylamide are a direct indicator of their modulation of AT4 receptor activity.
Crude membranes were prepared from HEK 293 cells stably transfected with pcDNA-3 containing the cDNA encoding the full length AT4 receptor/IRAP, using the same method as that described for bovine adrenal membranes. The membranes were solubilised in 50 mM Tris-HCl containing 1% Triton-X100 at 4° C. for 16 h. The IRAP enzymatic activity was determined by the hydrolysis of a synthetic substrate, L-leucine-β-naphthylamide, and monitored by the release of a fluorogenic product on a spectrophotometer set at excitation 340 nm and emission 410 nm. One hundred μM of the substrate was added to 10 μg of solubilised membranes, and the increase in fluorescence monitored for 10 min.
Samples were assayed 2-3 times in triplicate, except controls, which were performed 5 times in triplicate.

[2] = target: T1, IRAP; test: Degradation of peptides by IRAP expressed in HEK 293T cells, HPLC with mass spectrometric detection; assay type: biochemical; settings: for Substrate disappearance over 4 hr: 37° C., hIRAP transfected HEK 293T membranes, (=UT) equals untransfected control cells; for Products Identified: incubation at 37° C. with solubilized membrane protein from hIRAP transfected HEK 293T cells; for cleavage by IRAP: up to 6 hr
Experimental: At each time point (0, 0.5, 1, 2, 4 & 6 hr), an aliquot containing 5 μg peptide was removed, and the reaction stopped by addition of 4 volumes methanol/1% trifluoroacetic acid (TPA). Samples were dried on a centrifugal vacuum evaporator prior to HPLC analysis with on-line mass spectrometric detector. […] Fragments were identified following mass spectral analysis, using Agilent ChemStation deconvolution software.

[3] = system: rats; settings: rat, in vivo, iv; cited from earlier work
[4] = target: T2, IRAP (AT4 receptor) (Homo sapiens, UniProt Q9UIQ6); test: ^125I-Nle^1 Ang IV binding to membranes of HEK 293 cells transfected with IRAP cDNA
T2 construct: expressed in transfected cells; host or cells: HEK 293 cells (membranes)
T2 sequence (Q9UIQ6 whole entry): as above
Source text: The amount of radioligand bound to the membranes from HEK 293 cells transfected with IRAP cDNA was expressed as a percentage of radioligand bound to membranes from HEK 293 cells transfected with control plasmids.

[5] = target: human insulin-regulated aminopeptidase (IRAP) / angiotensin IV (AT4) receptor (human) (UniProt Q9UIQ6); test: cell-based or functional assay
Chain of human insulin-regulated aminopeptidase (IRAP) / angiotensin IV (AT4) receptor (human) (Q9UIQ6 whole entry): as above

[6] = target: T3, AT4 receptor (Bos taurus, UniProt F1N1Q8); test: AT4 radioreceptor assay, ^125I-Ang IV binding to bovine adrenal membranes
T3 construct: from tissue; host or cells: bovine adrenal gland membranes
T3 sequence (F1N1Q8 1-1022): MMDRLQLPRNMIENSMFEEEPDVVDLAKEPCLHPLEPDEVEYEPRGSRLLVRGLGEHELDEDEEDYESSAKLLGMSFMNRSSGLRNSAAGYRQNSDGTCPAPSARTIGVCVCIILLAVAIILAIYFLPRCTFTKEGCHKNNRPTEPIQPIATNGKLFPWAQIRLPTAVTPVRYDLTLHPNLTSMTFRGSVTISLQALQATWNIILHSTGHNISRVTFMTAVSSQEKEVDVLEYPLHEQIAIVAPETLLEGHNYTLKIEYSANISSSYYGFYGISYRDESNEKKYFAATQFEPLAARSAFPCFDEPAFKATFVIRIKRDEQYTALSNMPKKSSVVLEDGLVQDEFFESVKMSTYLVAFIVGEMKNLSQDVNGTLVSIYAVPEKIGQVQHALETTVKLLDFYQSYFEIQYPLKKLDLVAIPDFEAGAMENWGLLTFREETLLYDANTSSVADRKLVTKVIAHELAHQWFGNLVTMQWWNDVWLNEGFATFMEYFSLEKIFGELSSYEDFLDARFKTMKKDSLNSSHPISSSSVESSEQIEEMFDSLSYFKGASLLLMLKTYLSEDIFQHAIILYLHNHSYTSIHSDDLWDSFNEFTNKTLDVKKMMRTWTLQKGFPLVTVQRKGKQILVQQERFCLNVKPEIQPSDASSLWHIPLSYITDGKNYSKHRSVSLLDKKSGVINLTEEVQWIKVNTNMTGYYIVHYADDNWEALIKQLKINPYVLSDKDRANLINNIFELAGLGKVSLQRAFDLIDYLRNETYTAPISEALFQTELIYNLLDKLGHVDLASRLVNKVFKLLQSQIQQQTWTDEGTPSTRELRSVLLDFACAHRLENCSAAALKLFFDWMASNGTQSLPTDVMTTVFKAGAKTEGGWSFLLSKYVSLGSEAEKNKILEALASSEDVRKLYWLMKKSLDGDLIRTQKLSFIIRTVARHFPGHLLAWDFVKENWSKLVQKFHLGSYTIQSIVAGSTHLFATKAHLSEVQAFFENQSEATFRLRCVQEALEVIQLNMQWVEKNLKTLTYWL
Experimental: The AT4 radioreceptor assay was used to screen the sheep brain extracts for AT4 receptor modulatory activity. The membranes were prepared using bovine adrenal glands obtained from the abattoir. The adrenals were diced, homogenized in ice-cold hypotonic buffer (50 mM Tris, 5 mM EDTA, pH 7.4) and centrifuged for 10 min at 500 g. […] The resulting pellets were re-homogenized in hypotonic buffer. […] The samples were incubated for 2 h at 37° C., and the bound ligand was separated on Whatman GF/B glass fibre filters.

[7] = target: human insulin-regulated aminopeptidase (IRAP) / angiotensin IV (AT4) receptor (human) (UniProt Q9UIQ6); test: radioligand displacement of 125I-Nle-Ang IV
[8] = target: human insulin-regulated aminopeptidase (IRAP) / angiotensin IV (AT4) receptor (human) (UniProt Q9UIQ6); test: competitive inhibition of L-leucine-β-naphthylamide cleavage by solubilised membranes of IRAP-transfected HEK 293 cells; Ki from IC50=Ki(1+[S]/Km)
[9] = target: human insulin-regulated aminopeptidase (IRAP) / angiotensin IV (AT4) receptor (human) (UniProt Q9UIQ6); test: radioligand binding, HEK 293 and CHO cells transfected with IRAP cDNA
[10] = system: 3T3L1 cells; test: 2-deoxyglucose uptake in differentiated 3T3L1 adipocytes
Experimental: The effect of IRAP inhibitors on the regulation of glucose uptake was determined in 3T3L1 cells. 3T3L1 fibroblasts were differentiated by the addition of DMEM containing 5% fetal calf serum, 4 μg/ml insulin, 0.25 mM dexamethasone and 0.5 mM 3-isobutyl-1-methyl-xanthine. […] The reaction was stopped after 10 min by washing the cells in PBS. The cells were then solubilized in 0.5 N NaOH and counted.

[11] = target: T4, human insulin-regulated aminopeptidase (IRAP) / angiotensin IV (AT4) receptor (human, UniProt Q9UIQ6 1-1025); test: competition with 125I-Nle1 Ang IV on IRAP-transfected cells
T4 construct: whole, on cells; also called AT4 receptor/IRAP; hIRAP
T4 sequence (Q9UIQ6 whole entry): as the sequence (Q9UIQ6 whole entry) above

[12] = target: human insulin-regulated aminopeptidase (IRAP) / angiotensin IV (AT4) receptor (human) (UniProt Q9UIQ6); test: cell-based or functional assay; remark: listed apart in the source

Row | Molecule | Substrate disappearance over 4 hr [2] | Products Identified [2] | cleavage by IRAP [2] | also measured
1 | NC(=O)CC[C@@H]1NC(=O)[C@H](Cc2ccccc2)NC(=O)[C@H](Cc2ccc(O)cc2)NC(=O)[C@@H](N)CSSC[C@@H](C(=O)N2CCC[C@H]2C(=O)N[C@@H](CCCN=C(N)N)C(=O)NCC(N)=O)NC(=O)[C@H](CC(N)=O)NC1=O [AVP, arginine-vasopressin] | 58% | YFQNCytPRG-NH2; also recorded: FQNCytPRG-NH2 | most rapidly cleaved | IC50 [1]: > 40 µM
2 | CC(C)[C@H](N)CN[C@@H](Cc1ccc(O)cc1)C(=O)N[C@H](CN[C@@H](Cc1c[nH]cn1)C(=O)N1CCC[C@H]1C(=O)N[C@@H](Cc1ccccc1)C(=O)O)C(C)C [Divalinal - Ang IV] | None | None | no cleavage | effect on the swim maze enhancement by Nle-angiotensin IV [3]: blocked; IC50 [1]: 4 µM; Ki [1]: 2250 nM; type of inhibition of IRAP ([1]; Lineweaver-Burk analysis): competitive inhibition; IC50 [4]: 845 nM
3 | CC[C@H](C)[C@@H]1NC(=O)[C@H](Cc2ccc(O)cc2)NC(=O)[C@@H](N)CSSC[C@@H](C(=O)N2CCC[C@H]2C(=O)N[C@@H](CC(C)C)C(=O)NCC(N)=O)NC(=O)[C@H](CC(N)=O)NC(=O)[C@H](CCC(N)=O)NC1=O [OXY, oxytocin] | 37% | YIQNCytPLG-NH2 | most rapidly cleaved | 
4 | CC(C)C[C@@H](N)[C@H](O)C(=O)N[C@H](C(=O)N[C@H](C(=O)N[C@@H](CC(=O)O)C(=O)O)C(C)C)C(C)C [amastatin] |  |  |  | inhibition at 100 µM ([1]; 100 μM amastatin): 25%
5 | CC(C)C[C@H](NC(=O)[C@@H](O)[C@H](N)Cc1ccccc1)C(=O)O [bestatin] |  |  |  | inhibition at 10 µM ([1]; 10 μM bestatin): 60%
6 | Ang I: angiotensin peptide (DRVYIHPFHL) | None | None | no cleavage | 
7 | Angiotensin III (from UniProt P01019 26-32) (peptide) |  |  |  | Substrate disappearance over 4 hr [5]: 7%
8 | GnRH: peptide tested as potential IRAP substrate | None | None | No cleavage | 
9 | KYLPGPLQ |  |  |  | Ki ([6]; bovine adrenal membranes, synthetic peptides, read-out: affinity in competing for ^125I-Ang IV binding): 1 to 5 nM
10 | Met-enkephalin | 65% | GGFM | most rapidly cleaved | 
11 | Neurotensin (from UniProt P30990 151-163) (peptide) |  |  |  | Substrate disappearance over 4 hr [5]: 22%
12 | Nle^1-Ang IV (Nle-YIHPF) (peptide) |  |  |  | IC50 [7]: 3.32 nM; Ki [8]: 340 nM; IC50 inhibition leucine β-naphthylamide [5]: 600 nM; Substrate disappearance over 4 hr [5]: 16%; fold increase in specific binding sites over control cells [9]: 10 to 20 fold
13 | VYPWT |  |  |  | AT4 receptor/IRAP binding activity of fragment ([6]; structure-activity study on LVVYPWTQRF): retained full AT4 receptor/IRAP binding activity
14 | [pGlu^4Cyt^6]AVP(4-9) ([pGlu]N[Cyt]PRG; ends and bridges not checked; also: Cyt6: cystine at position 6, partner not given here) [pGlu^4Cyt^6AVP] | None | None | No cleavage | 
15 | acetylated AVP [AcAVP] | None | None | No cleavage | 
16 | angiotensin II (DRVYIHPF) [Ang II] | None | None | no cleavage | 
17 | angiotensin III [Ang III] | 7% (=UT) | RVYIHP |  | 
18 | arginine-vasopressin (from UniProt P01185 20-28) (peptide) |  |  |  | IC50 of inhibition of L-leucine-β-naphthylamide cleavage [5]: > 40 µM
19 | divalinal-Ang IV (peptide) |  |  |  | IC50 inhibition leucine β-naphthylamide [5]: 4000 nM
20 | insulin |  |  |  | glucose uptake under insulin stimulation ([10]; 0.7 nM insulin): 13.5±2.6 pmol/min/well; glucose uptake under insulin stimulation ([10]; 70 nM insulin): 19.7±1.18 pmol/min/well
21 | oxytocin (from UniProt P01178 20-28) (peptide) |  |  |  | Substrate disappearance over 4 hr [5]: 37%
22 | sar^1Ile^8-Ang II | None | None |  | 
23 | α-Endorphin (YGGFMTSEKSQTPLVT) [16 residues, first five identical to met-enkephalin] | None | None | not cleaved at all | 
24 | α-neo-Endorphin (YGGFLRKYPK) [opioid peptide, 10 residues] | 9% | GGFLRKYPK,; also recorded: GFLRKYPK, FLRKYPK | at least three N-terminal residues were cleaved | 
25 | α-neo-Endorphin (from UniProt P01213 175-184) (peptide) |  |  |  | Substrate disappearance over 4 hr [5]: 9%
26 | KYLPGPLQ (Purified from blood-free sheep cerebral cortex; synthetic peptide used in the assays; also called complexin fragment) [KYLPGPLQ (complexin II fragment)] |  |  |  | binding result [11]: binds
27 | YGGFM (peptide, UniProt P01210 100-104, looked up) [Met-enkephalin] |  |  |  | Substrate disappearance over 4 hr [12]: 65%
